From patent US20040038290A1 (ROCKEFELLER UNIVERSITY, published 2004)
Each block holds one molecule with its values, some of them ahead of it.

Assays:
[1] = target: E. coli Pol III (Escherichia coli) (UniProt P10443); test: cell-based or functional assay
[2] = target: human DNA polymerase delta (human) (UniProt P28340); test: cell-based or functional assay
[3] = target: Thermus thermophilus DNA polymerase III purified from T.th. cell extracts; test: cell-based or functional assay
[4] = target: T1, Aquifex aeolicus α subunit of DNA polymerase III (Aquifex aeolicus, UniProt O67125 1-1161); test: complex constitution from pure subunits, column chromatography
T1 construct: Recombinant, expressed in E. coli from pETAadnaE (pET24); also called A.ae. α; Aquifex α
T1 sequence: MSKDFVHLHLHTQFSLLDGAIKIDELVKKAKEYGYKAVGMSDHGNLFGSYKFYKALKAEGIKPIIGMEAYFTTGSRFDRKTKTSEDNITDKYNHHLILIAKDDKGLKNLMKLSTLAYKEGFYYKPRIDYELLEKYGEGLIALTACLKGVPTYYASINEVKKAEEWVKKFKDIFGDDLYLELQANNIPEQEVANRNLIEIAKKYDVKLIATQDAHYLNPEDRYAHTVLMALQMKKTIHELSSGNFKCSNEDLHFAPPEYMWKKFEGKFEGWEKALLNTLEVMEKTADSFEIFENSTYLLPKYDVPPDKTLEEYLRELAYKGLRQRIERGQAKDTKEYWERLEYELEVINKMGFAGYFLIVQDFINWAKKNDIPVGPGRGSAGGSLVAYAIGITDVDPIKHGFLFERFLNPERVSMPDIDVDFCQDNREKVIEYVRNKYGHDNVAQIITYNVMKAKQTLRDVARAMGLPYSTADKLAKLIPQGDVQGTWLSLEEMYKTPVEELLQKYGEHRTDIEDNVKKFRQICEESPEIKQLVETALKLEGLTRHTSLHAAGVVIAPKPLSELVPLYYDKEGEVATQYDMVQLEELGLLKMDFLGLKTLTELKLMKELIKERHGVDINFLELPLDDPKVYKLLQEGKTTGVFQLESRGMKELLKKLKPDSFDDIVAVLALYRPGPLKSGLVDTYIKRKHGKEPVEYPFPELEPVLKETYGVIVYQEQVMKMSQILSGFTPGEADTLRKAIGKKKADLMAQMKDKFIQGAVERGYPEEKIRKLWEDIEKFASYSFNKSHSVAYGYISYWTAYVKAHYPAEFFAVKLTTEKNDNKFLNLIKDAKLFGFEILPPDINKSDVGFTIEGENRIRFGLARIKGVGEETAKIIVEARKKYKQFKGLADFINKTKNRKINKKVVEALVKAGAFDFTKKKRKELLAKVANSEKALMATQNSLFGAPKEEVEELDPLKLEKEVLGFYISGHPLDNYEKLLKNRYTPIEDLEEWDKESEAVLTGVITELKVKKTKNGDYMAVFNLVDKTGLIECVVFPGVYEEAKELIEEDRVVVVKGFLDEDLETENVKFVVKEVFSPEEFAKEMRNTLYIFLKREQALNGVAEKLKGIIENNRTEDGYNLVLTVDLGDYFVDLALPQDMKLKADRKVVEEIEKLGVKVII

Chain of human DNA polymerase delta (human) (P28340 whole entry, stated change not applied): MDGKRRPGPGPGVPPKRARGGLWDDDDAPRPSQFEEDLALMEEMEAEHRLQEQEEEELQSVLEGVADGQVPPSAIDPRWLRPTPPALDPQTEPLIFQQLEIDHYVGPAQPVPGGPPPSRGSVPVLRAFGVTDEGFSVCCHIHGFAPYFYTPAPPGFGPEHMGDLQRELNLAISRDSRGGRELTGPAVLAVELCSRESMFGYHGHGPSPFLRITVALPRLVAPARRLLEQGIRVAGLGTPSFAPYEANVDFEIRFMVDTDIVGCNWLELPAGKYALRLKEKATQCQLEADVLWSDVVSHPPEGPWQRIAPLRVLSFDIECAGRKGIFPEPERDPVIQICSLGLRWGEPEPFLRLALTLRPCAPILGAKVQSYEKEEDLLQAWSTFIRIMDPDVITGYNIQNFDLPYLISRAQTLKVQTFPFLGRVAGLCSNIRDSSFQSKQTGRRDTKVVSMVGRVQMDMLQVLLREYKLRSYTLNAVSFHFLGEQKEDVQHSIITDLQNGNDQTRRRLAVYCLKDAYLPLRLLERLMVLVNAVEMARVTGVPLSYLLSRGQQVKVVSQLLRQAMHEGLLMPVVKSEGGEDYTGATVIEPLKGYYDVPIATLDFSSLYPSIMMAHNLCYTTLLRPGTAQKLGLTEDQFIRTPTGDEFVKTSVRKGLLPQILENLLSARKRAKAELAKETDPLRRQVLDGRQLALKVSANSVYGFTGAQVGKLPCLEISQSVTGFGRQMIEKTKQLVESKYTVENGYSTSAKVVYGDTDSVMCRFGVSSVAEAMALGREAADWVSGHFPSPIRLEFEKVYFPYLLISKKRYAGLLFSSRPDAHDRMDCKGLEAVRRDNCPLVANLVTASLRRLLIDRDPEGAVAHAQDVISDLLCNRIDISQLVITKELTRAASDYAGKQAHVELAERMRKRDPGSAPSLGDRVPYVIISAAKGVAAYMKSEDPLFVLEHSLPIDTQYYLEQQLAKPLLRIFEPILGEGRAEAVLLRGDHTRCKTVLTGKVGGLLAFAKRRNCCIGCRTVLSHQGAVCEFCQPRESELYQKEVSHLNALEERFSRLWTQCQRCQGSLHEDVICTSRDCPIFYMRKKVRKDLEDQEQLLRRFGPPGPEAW
Chain of E. coli Pol III (Escherichia coli) (P10443 whole entry): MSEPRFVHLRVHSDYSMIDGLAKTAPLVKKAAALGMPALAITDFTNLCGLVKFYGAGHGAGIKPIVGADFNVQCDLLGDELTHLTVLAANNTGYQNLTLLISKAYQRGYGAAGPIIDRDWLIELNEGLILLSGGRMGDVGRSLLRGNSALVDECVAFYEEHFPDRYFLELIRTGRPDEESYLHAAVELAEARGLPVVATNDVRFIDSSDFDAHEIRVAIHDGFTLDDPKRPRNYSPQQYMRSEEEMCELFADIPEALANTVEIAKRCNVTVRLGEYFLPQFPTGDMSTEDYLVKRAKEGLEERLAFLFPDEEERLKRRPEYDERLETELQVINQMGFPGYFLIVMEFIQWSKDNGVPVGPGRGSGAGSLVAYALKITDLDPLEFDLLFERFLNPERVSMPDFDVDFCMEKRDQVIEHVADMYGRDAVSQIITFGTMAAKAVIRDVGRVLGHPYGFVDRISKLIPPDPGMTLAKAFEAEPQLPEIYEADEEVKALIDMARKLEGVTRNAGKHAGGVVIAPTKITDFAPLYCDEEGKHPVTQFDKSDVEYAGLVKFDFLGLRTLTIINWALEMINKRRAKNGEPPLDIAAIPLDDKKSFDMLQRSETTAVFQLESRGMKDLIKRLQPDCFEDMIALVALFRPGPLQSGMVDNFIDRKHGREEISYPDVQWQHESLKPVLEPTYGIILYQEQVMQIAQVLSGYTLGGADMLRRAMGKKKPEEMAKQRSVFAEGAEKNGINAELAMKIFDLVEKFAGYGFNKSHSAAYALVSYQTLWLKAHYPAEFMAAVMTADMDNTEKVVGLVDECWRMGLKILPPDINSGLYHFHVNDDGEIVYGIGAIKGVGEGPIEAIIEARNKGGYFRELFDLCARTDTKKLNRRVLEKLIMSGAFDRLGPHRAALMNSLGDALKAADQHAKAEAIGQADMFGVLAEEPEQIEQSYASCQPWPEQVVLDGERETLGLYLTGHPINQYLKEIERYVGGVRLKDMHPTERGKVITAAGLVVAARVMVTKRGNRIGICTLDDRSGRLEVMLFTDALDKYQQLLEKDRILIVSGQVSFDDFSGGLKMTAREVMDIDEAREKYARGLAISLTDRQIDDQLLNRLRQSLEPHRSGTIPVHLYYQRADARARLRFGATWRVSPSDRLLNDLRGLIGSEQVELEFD

Molecule: E. coli β subunit (from UniProt P0A988 1-366)
pmol synthesis on oligodT-primed linear polydA, E. coli Pol III with β (lane 2) [1]: 35 pmol | pmol synthesis on oligodT-primed linear polydA, E. coli Pol III without β (lane 1, baseline) [1]: 6 pmol

B2: Aquifex aeolicus tau subunit of DNA polymerase III (other)
chain: MNYVPFARKYRPKFFREVIGQEAPVRILKNAIKNDRVAHAYLFAGPRGVGKTTIARILAKALNCKNPSKGEPCGECENCREIDRGVFPDLIEMDAASNRGIDDVRALKEAVNYKPIKGKYKVYIIDEAHMLTKEAFNALLKTLEEPPPRTVFVLCTTEYDKILPTILSRCQRIIFSKVRKEKVIEYLKKICEKEGIECEEGALEVLAHASEGCMRDAASLLDQASVYGEGRVTKEVVENFLGILSQESVRSFLKLLLNSEVDEAIKFLRELSEKGYNLTKFWEMLEEEVRNAILVKSLKNPESVVQNWQDYEDFKDYPLEALLYVENLINRGKVEARTREPLRAFELAVIKSLIVKDIIPVSQLGSVVKETKKEEKKVEVKEEPKVKEEKPKEQEEDRFQKVLNAVDGKILKRILEGAKREERDGKIVLKIEASYLRTMKKEFDSLKETFPFLEFEPVEDKKKPQKSSGTRLF
notes: Recombinant, expressed in E. coli from pETAadnaX (pET24); also called A.ae. tau
binding result [4]: binds

Further lines, results first:

pmol synthesis on oligodT-primed linear polydA, human Polδ with PCNA (lane 4) [2]: 24 pmol | pmol synthesis on oligodT-primed linear polydA, human Polδ without PCNA (lane 3, baseline) [2]: 2 pmol
Molecule: human PCNA (from UniProt P12004 1-261)

pmol synthesis on oligodT-primed linear polydA, T.th. Pol III with T.th. β (lane 6) [3]: 1.9 pmol | pmol synthesis on oligodT-primed linear polydA, T.th. Pol III without T.th. β (lane 5, baseline) [3]: 0.6 pmol
B1: Thermus thermophilus β subunit, recombinant (protein)
chain: MNITVPKKLLSDQLSLLERIVPSRSANPLYTYLGLYAEEGALILFGTNGEVDLEVRLPAEAQSLPRVLVPAQPFFQLVRSLPGDLVALGLASEPGQGGQLELSSGRFRTRLSLAPAEGYPELLVPEGEDKGAFPLRTRMPSGELVKALTHVRYAASNEEYRAIFRGVQLEFSPQGFRAVASDGYRLALYDLPLPQGFQAKAVVPARSVDEMVRVLKGADGAEAVLALGEGVLALALEGGSGVRMALRLMEGEFPDYQRVIPQEFALKVQVEGEALREAVRRVSVLSDRQNHRVDLLLEEGRILLSAEGDYGKGQEEVPAQVEGPDMAVAYNARYLLEALAPVGDRAHLGISGPTSPSLIWGDGEGYRAVVVPLRVZ
